Literature values, collected in article PMC5711038.

Target: Fbxw7 substrate receptor (Homo sapiens) (UniProt Q969H0)
Assay: FRET

Chain of UniProt Q969H0 (Q969H0 whole entry): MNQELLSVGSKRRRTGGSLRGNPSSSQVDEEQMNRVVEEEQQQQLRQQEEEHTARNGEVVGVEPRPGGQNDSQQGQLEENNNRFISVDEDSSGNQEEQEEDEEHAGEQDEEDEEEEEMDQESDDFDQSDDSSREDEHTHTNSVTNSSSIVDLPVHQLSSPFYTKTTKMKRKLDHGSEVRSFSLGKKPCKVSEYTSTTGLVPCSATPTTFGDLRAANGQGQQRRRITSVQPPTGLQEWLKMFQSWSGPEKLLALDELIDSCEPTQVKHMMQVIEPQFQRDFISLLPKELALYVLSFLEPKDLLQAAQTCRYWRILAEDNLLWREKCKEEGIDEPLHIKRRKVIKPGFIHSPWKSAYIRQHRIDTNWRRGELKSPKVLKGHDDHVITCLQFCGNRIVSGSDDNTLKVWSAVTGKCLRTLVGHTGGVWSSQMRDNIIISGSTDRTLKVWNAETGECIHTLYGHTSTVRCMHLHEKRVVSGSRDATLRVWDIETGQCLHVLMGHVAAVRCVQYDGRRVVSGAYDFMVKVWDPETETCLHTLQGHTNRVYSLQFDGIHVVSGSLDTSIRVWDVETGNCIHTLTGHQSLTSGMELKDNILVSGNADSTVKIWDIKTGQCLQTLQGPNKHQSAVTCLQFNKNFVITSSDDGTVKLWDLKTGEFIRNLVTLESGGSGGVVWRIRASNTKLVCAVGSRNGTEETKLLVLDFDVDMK

Cul1 (from UniProt Q13616)
Kd: 1 pM
